Biological target: human CLEC14A (endogenous, in HUVECs) (human) (UniProt Q86T13)
Assay: cell-based or functional assay

UniProt Q86T13, sequence (Q86T13 22-490): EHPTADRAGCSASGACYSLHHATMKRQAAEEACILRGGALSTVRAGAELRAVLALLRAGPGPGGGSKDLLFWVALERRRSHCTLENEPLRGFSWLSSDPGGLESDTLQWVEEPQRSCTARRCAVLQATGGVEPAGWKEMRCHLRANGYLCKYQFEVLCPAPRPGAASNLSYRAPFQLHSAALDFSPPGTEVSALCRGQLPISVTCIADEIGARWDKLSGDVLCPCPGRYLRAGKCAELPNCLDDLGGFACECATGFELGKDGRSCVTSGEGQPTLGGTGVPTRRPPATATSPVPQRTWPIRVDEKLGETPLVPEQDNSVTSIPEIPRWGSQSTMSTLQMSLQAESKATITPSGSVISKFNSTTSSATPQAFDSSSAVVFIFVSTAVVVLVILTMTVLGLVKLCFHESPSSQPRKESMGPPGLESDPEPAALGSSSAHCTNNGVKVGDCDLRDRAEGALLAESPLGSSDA

wound area remaining open at 12 h, HUVEC scratch wound healing assay, 10 µg/ml antibody: 25%
B1: anti-CLEC14A monoclonal antibody CRT-3 (antibody, from another filing, IgG1, V domains shown)
VH: EVQLQQSGTVLARPGASVKMSCKASGYTFTSYWMHWVKQRPGQGLEWIGAIYPGNSDTSYNQKFKGKAKLTAVTSTSTAYMELSSLTNEDSAVFYCTHYYGSDYAMDYWGQGTSVTV
VL: QIVLTQSPAIMSASLGERVTMTCTASSSVSSSYLHWYQQKPGSSPKLWIYSTSNLASGVPARFSGSGSGTSYSLTISSMEAEDAATYYCHQYHRSPRTFGGGTKLEIKR
